Results from the supplement of paper PMC10567573.

Assay: protein stability index of a GFP-peptide fusion (GPS, HEK-293T) (PSI 1-6); higher = more stable
[1] = parent: NP_116010.1, c terminus: native
[2] = parent: NP_006221.1, c terminus: native
[3] = parent: NP_002788.1, c terminus: native
[4] = parent: NP_009172.2, c terminus: native
[5] = parent: NP_015628.1, c terminus: native

HSLRAVSTDPPHHDHHDEFCLMP [BEX2 WT]
protein stability index [1]: 2.48

DHSGFISLDEFRQTWKLFSSHMNI
protein stability index (parent: IOH82202_112, c terminus: a fixed tail appended): 1.7

QKPLCASDGRTFLSRCEFQRAKCK
protein stability index (parent: IOH81799_9, c terminus: a fixed tail appended): 2.71

FTETNNHWPQGPTGPPGPPGPMGP [EMID1 WT]
protein stability index (parent: IOH81855_48, c terminus: a fixed tail appended): 2.31

ILFSLPPALDWDSVHVPGPHAMTI
protein stability index (parent: IOH82149_45, c terminus: a fixed tail appended): 2.54

CQPISFSGFGAEDDDLGGLGLGPA [POLD2 addA]
protein stability index [2]: 2.54

FSEIRETSAKVNWMPPPSRADSFK [TNXB WT]
protein stability index (parent: IOH81617_33, c terminus: a fixed tail appended): 3.45

DGWIRVSSDNVADLHEKYSGSTPT [PSMB5 addT]
protein stability index [3]: 3.53

HSLRAVSTDPPHHDHHDEFCLMPA [BEX2 addA]
protein stability index [1]: 3.18

HISSCKLGPQVSLDPMKNVTCENG
protein stability index (parent: IOH81790_46, c terminus: a fixed tail appended): 3.95

YAGNLHESGVHGALLALDENFDHN
protein stability index (parent: IOH82170_95, c terminus: a fixed tail appended): 2.51

IDFLRVVRNQQSLAVSNMGARSKG
protein stability index (parent: IOH82149_81, c terminus: a fixed tail appended): 2.4

LTKLREMGREKCHQYWPAERSARY
protein stability index (parent: IOH82190_223, c terminus: a fixed tail appended): 2.36

FSPDGPSRFRKAYKPEQPLVRLRG
protein stability index (parent: IOH81790_52, c terminus: a fixed tail appended): 1.81

VIDLFDEQGLSALHLAAQGRHAQT
protein stability index (parent: IOH82264_122, c terminus: a fixed tail appended): 2.72

PALETQPQGDEEDIASRYPTLWTE
protein stability index (parent: IOH81799_32, c terminus: a fixed tail appended): 4.26

CQPISFSGFGAEDDDLGGLGLGPT [POLD2 addT]
protein stability index [2]: 2.6

AFKAAALIQRWYRRYVARLEMRRR
protein stability index (parent: IOH82202_4, c terminus: a fixed tail appended): 3.14

PGVHRRYSALREESAKDWETSPLP
protein stability index (parent: IOH82170_4, c terminus: a fixed tail appended): 4.19

LPALFTDLYSQEITAEEAREALP [SNF8 WT]
protein stability index [4]: 2.74

SYVRSRKRLREEEAARLFKQIVSA
protein stability index (parent: IOH82269_29, c terminus: a fixed tail appended): 2.13

VNVPGSFVCQCYSGYALAEDGKRC
protein stability index (parent: IOH81883_50, c terminus: a fixed tail appended): 1.99

TLDGYGIHPKSIDLDNYFTARRLL [NFE2L1 WT]
protein stability index (parent: IOH81649_11, c terminus: a fixed tail appended): 1.93

FSLKTFKRKSEVERAVKRMRHLST
protein stability index (parent: IOH81883_19, c terminus: a fixed tail appended): 2.06

RLLRFSSQIHNNGQSDFRPKNGRH
protein stability index (parent: IOH81790_100, c terminus: a fixed tail appended): 2.72

LKGAFPARLKKVLIVGAPIWFRVP
protein stability index (parent: IOH82149_30, c terminus: a fixed tail appended): 2.96

ELDELLKEISRKRRSIRYGREVEL
protein stability index (parent: IOH82190_126, c terminus: a fixed tail appended): 2.18

VSVNAQTLDGRTPLHLAAQRGHYR
protein stability index (parent: IOH82264_100, c terminus: a fixed tail appended): 3.37

EIGTSDQIVPEYQEDSDISSFFC
protein stability index (parent: IOH82269_63, c terminus: native): 2.87

SFRKFRYGYNNVVTIPAGATHILV
protein stability index (parent: IOH81847_116, c terminus: a fixed tail appended): 2.6

DGWIRVSSDNVADLHEKYSGSTP [PSMB5 WT]
protein stability index [3]: 2.42

VMTLPSDLRKHRRKLLSPVSREEN
protein stability index (parent: IOH82170_31, c terminus: a fixed tail appended): 3.53

AAWQGHLPIVKLLAKQPGVSVNAQ
protein stability index (parent: IOH82264_97, c terminus: a fixed tail appended): 2.35

LPALFTDLYSQEITAEEAREALPA [SNF8 addA]
protein stability index [4]: 3.42

GSLPWQGLKADTLKERYQKIGDTK [CSNK1G1 WT]
protein stability index (parent: IOH82133_42, c terminus: a fixed tail appended): 4.1

TQHLPRECLPENLGGYVKIDLATW
protein stability index (parent: IOH82149_38, c terminus: a fixed tail appended): 1.88

YVEVKEGKTWKQICDKHWTAKNSR
protein stability index (parent: IOH81790_35, c terminus: a fixed tail appended): 2.24

EQRNSRWNTVLRAVKAKTHHLEPA [TRPA1 addA]
protein stability index [5]: 4.26

FICQATGDPRPKIVWNKKGKKVSN
protein stability index (parent: IOH82190_8, c terminus: a fixed tail appended): 2.13

CQPISFSGFGAEDDDLGGLGLGP [POLD2 WT]
protein stability index [2]: 2.27

FIPSSHNDRDFLTRIFTEDRFAQD
protein stability index (parent: IOH82202_13, c terminus: a fixed tail appended): 2.05

TDDSYSCHCLKGFTLNPDKKTCRR
protein stability index (parent: IOH81883_64, c terminus: a fixed tail appended): 2.25

PVVSMDLDPQPITDEEEGLIWVVG
protein stability index (parent: IOH82190_140, c terminus: a fixed tail appended): 3.88

ITWFKDFLPVDTSNNNGRIKQLRS
protein stability index (parent: IOH82190_27, c terminus: a fixed tail appended): 1.83

HVDPEEPWSPCSARFITDFLDNGY
protein stability index (parent: IOH81847_67, c terminus: a fixed tail appended): 1.84

FIVDILQFLDIGPDVTRVGLLQYG
protein stability index (parent: IOH81883_14, c terminus: a fixed tail appended): 2.92

DGWIRVSSDNVADLHEKYSGSTPA [PSMB5 addA]
protein stability index [3]: 2.51

AVKKFVESEDDPVVKKIALREIRM [CDKL4 WT]
protein stability index (parent: IOH82195_6, c terminus: a fixed tail appended): 2.87

MVHVARLLLLLLTFFLRTDAETPP
protein stability index (parent: IOH82190_1, c terminus: a fixed tail appended): 2.92

LPALFTDLYSQEITAEEAREALPT [SNF8 addT]
protein stability index [4]: 3.79

NKWTVQYNVSPLSWNVAVKFLMAR
protein stability index (parent: IOH82149_6, c terminus: a fixed tail appended): 2.09

DCAGSPQKPLCASDGRTFLSRCEF
protein stability index (parent: IOH81799_8, c terminus: a fixed tail appended): 2.54

EQRNSRWNTVLRAVKAKTHHLEP [TRPA1 WT]
protein stability index [5]: 3.03

RERMELLEEAKKMEMAKFRYILPV
protein stability index (parent: IOH82264_11, c terminus: a fixed tail appended): 2.38

EQRNSRWNTVLRAVKAKTHHLEPT [TRPA1 addT]
protein stability index [5]: 4.19
